In patent publication US20230227559A1:

Target: His-tagged ectodomains of hFcγRIIIA variant V158 (human) (UniProt P08637)
Test: SPR (ProteON), His-tagged hFcγRIIIA V158 ectodomains on chip, mAb injected

Chain of His-tagged ectodomains of hFcγRIIIA variant V158 (human) (P08637 other isoform, or with tags, fused parts or gaps mutant): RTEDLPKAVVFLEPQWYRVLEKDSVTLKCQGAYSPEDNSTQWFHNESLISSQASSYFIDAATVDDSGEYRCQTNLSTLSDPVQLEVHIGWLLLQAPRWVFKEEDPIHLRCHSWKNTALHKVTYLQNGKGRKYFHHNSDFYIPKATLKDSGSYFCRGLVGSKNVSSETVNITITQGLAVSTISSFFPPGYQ

Row | Kd [nM] | koff [s⁻¹] | kon [M⁻¹ s⁻¹] | Substance
1 | 2.1 | 0.00021 | 300000 | Chimeric 3G8 hIgG1 (antibody)
2 | 2.88 | 0.0003 | 110000 | Chimeric 3G8 hIgG1 N297A format (antibody)
